Assay results as given in patent publication US20160159885A1.

Assays:
[1] = molecular target: thermolysin (Bacillus thermoproteolyticus) (UniProt P00800); assay: cell-based or functional assay
pseudolysin = pseudolysin (UniProt P14756); assay: cell-based or functional assay
Sequence of UniProt P14756 (P14756 198-498 limits assumed): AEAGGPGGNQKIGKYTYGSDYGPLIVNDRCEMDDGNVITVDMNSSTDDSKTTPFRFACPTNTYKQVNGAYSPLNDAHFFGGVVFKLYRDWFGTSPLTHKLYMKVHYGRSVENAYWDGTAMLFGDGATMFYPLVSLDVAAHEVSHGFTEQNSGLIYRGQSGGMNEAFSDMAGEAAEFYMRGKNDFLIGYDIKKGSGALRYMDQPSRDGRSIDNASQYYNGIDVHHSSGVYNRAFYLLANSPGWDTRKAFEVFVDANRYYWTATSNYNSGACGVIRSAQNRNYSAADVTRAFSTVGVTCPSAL

Sequence of UniProt P00800 (P00800 233-548 limits assumed): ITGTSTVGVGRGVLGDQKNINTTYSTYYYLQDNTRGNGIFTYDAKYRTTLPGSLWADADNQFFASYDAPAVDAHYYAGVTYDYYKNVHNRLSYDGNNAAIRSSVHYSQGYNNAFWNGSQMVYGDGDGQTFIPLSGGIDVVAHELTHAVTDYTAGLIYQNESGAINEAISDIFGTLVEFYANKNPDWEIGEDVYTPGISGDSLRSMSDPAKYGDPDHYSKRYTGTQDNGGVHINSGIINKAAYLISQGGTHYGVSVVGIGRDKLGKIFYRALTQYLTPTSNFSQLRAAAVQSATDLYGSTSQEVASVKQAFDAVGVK

wtIMPIα (wild-type insect metalloproteinase inhibitor IMPIα) (from UniProt P82176 20-88)
0.0199 µM: IC50 wt PLN; column Pos39 RnW (pseudolysin)
0.0308 µM: IC50 wt PLN; column Pos37 NnM (pseudolysin)
0.0117 µM: IC50 wt TLN; column Pos37 NnM [1]
0.0121 µM: IC50 wt TLN; column Pos37 NnD [1]
0.0125 µM: IC50 wt TLN; column Pos36 InD [1] | IC50 wt TLN; column Pos36 InE [1] | IC50 wt TLN; column Pos36 InK [1] | IC50 wt TLN; column Pos36 InW [1] | IC50 wt TLN; column Pos37 NnS [1] | IC50 wt TLN; column Pos37 NnY [1] | IC50 wt TLN; column Pos38 InG [1] | IC50 wt TLN; column Pos38 InH [1] | IC50 wt TLN; column Pos38 InM [1] | IC50 wt TLN; column Pos39 RnA [1] | IC50 wt TLN; column Pos39 RnF [1] | IC50 wt TLN; column Pos39 RnI [1] | IC50 wt TLN; column Pos39 RnK [1] | IC50 wt TLN; column Pos39 RnV [1] | IC50 wt TLN; wt (avg), Pos36 block [1] | IC50 wt TLN; wt (avg), Pos38 block [1] | IC50 wt TLN; wt (avg), Pos39 block [1]
0.0219 µM: IC50 wt PLN; column Pos35 InL (pseudolysin) | IC50 wt PLN; column Pos35 InM (pseudolysin) | IC50 wt PLN; column Pos36 InQ (pseudolysin) | IC50 wt PLN; column Pos36 InT (pseudolysin) | IC50 wt PLN; column Pos37 NnA (pseudolysin) | IC50 wt PLN; column Pos37 NnE (pseudolysin) | IC50 wt PLN; column Pos39 RnT (pseudolysin) | IC50 wt PLN; wt (avg), Pos36 block (pseudolysin)
0.0212 µM: IC50 wt PLN; column Pos37 NnH (pseudolysin) | IC50 wt PLN; column Pos37 NnV (pseudolysin) | IC50 wt PLN; column Pos39 RnI (pseudolysin)
0.0226 µM: IC50 wt PLN; column Pos37 NnD (pseudolysin)
0.0128 µM: IC50 wt TLN; column Pos37 NnH [1]
0.0127 µM: IC50 wt TLN; column Pos37 NnC [1] | IC50 wt TLN; column Pos37 NnV [1] | IC50 wt TLN; column Pos37 NnW [1] | IC50 wt TLN; column Pos39 RnG [1]
0.0231 µM: IC50 wt PLN; column Pos38 InH (pseudolysin)
0.0214 µM: IC50 wt PLN; column Pos38 InM (pseudolysin) | IC50 wt PLN; wt (avg), Pos39 block (pseudolysin)
0.0228 µM: IC50 wt PLN; column Pos38 InG (pseudolysin)
0.0222 µM: IC50 wt PLN; column Pos35 InV (pseudolysin) | IC50 wt PLN; column Pos36 InY (pseudolysin) | IC50 wt PLN; column Pos37 NnQ (pseudolysin) | IC50 wt PLN; column Pos38 InQ (pseudolysin) | IC50 wt PLN; wt (avg), Pos37 block (pseudolysin)
0.0111 µM: IC50 wt TLN; column Pos37 NnL [1]
0.0221 µM: IC50 wt PLN; column Pos35 InW (pseudolysin) | IC50 wt PLN; column Pos36 InV (pseudolysin) | IC50 wt PLN; column Pos36 InW (pseudolysin) | IC50 wt PLN; column Pos39 RnA (pseudolysin) | IC50 wt PLN; column Pos39 RnM (pseudolysin) | IC50 wt PLN; column Pos39 RnQ (pseudolysin)
0.0223 µM: IC50 wt PLN; column Pos36 InF (pseudolysin) | IC50 wt PLN; column Pos36 InR (pseudolysin)
0.0216 µM: IC50 wt PLN; column Pos36 InE (pseudolysin) | IC50 wt PLN; column Pos36 InG (pseudolysin)
0.0211 µM: IC50 wt PLN; column Pos38 InF (pseudolysin) | IC50 wt PLN; column Pos38 InW (pseudolysin) | IC50 wt PLN; column Pos38 InY (pseudolysin)
0.0215 µM: IC50 wt PLN; column Pos37 NnS (pseudolysin) | IC50 wt PLN; column Pos37 NnW (pseudolysin) | IC50 wt PLN; column Pos37 NnY (pseudolysin) | IC50 wt PLN; column Pos38 InV (pseudolysin)
0.0218 µM: IC50 wt PLN; column Pos35 InA (pseudolysin) | IC50 wt PLN; column Pos37 NnG (pseudolysin) | IC50 wt PLN; column Pos39 RnV (pseudolysin) | IC50 wt PLN; wt (avg), Pos38 block (pseudolysin)
0.0203 µM: IC50 wt PLN; column Pos39 RnG (pseudolysin)
0.0208 µM: IC50 wt PLN; column Pos37 NnL (pseudolysin) | IC50 wt PLN; column Pos37 NnP (pseudolysin)
0.012 µM: IC50 wt TLN; column Pos37 NnP [1]
0.0201 µM: IC50 wt PLN; column Pos39 RnL (pseudolysin)
0.0124 µM: IC50 wt TLN; column Pos36 InA [1] | IC50 wt TLN; column Pos36 InH [1] | IC50 wt TLN; column Pos36 InM [1] | IC50 wt TLN; column Pos36 InT [1] | IC50 wt TLN; column Pos38 InW [1] | IC50 wt TLN; column Pos39 RnL [1] | IC50 wt TLN; column Pos39 RnW [1] | IC50 wt TLN; wt (avg), Pos37 block [1]
0.0217 µM: IC50 wt PLN; column Pos38 InL (pseudolysin)
0.0209 µM: IC50 wt PLN; column Pos36 InD (pseudolysin)
0.0225 µM: IC50 wt PLN; column Pos39 RnY (pseudolysin)
0.022 µM: IC50 wt PLN; column Pos35 InF (pseudolysin) | IC50 wt PLN; column Pos35 InY (pseudolysin) | IC50 wt PLN; column Pos36 InA (pseudolysin) | IC50 wt PLN; column Pos36 InH (pseudolysin) | IC50 wt PLN; column Pos36 InK (pseudolysin) | IC50 wt PLN; column Pos36 InM (pseudolysin) | IC50 wt PLN; column Pos39 RnK (pseudolysin) | IC50 wt PLN; wt (avg), Pos35 block (pseudolysin)
0.0126 µM: IC50 wt TLN; column Pos35 InA [1] | IC50 wt TLN; column Pos35 InF [1] | IC50 wt TLN; column Pos35 InL [1] | IC50 wt TLN; column Pos35 InM [1] | IC50 wt TLN; column Pos35 InV [1] | IC50 wt TLN; column Pos35 InW [1] | IC50 wt TLN; column Pos35 InY [1] | IC50 wt TLN; column Pos36 InF [1] | IC50 wt TLN; column Pos36 InG [1] | IC50 wt TLN; column Pos36 InQ [1] | IC50 wt TLN; column Pos36 InR [1] | IC50 wt TLN; column Pos36 InV [1] | IC50 wt TLN; column Pos36 InY [1] | IC50 wt TLN; column Pos37 NnA [1] | IC50 wt TLN; column Pos37 NnE [1] | IC50 wt TLN; column Pos37 NnG [1] | IC50 wt TLN; column Pos37 NnQ [1] | IC50 wt TLN; column Pos38 InF [1] | IC50 wt TLN; column Pos38 InL [1] | IC50 wt TLN; column Pos38 InQ [1] | IC50 wt TLN; column Pos38 InV [1] | IC50 wt TLN; column Pos38 InY [1] | IC50 wt TLN; column Pos39 RnM [1] | IC50 wt TLN; column Pos39 RnQ [1] | IC50 wt TLN; wt (avg), Pos35 block [1]
0.0207 µM: IC50 wt PLN; column Pos37 NnC (pseudolysin)
0.0205 µM: IC50 wt PLN; column Pos39 RnF (pseudolysin)
